The term Kd denotes the equilibrium constant for the complex coming apart. Read a low Kd as tighter binding. A word on the stoichiometry N: it is a count of units in the complex or per binding partner.

The target in this experiment is His6-ΔIBBMOS6 (Arabidopsis thaliana) (UniProt O04294). The experiment is described as follows: ITC; MicroCal 205, 25°C, 20 mM HEPES, 150 mM NaCl, pH 7.5; His6–ΔIBB–MOS6 in the cell at 43–54 μM, titrated with His6-tagged cargo at 320–940 μM.
UniProt O04294, sequence (O04294 whole entry, stated change not applied): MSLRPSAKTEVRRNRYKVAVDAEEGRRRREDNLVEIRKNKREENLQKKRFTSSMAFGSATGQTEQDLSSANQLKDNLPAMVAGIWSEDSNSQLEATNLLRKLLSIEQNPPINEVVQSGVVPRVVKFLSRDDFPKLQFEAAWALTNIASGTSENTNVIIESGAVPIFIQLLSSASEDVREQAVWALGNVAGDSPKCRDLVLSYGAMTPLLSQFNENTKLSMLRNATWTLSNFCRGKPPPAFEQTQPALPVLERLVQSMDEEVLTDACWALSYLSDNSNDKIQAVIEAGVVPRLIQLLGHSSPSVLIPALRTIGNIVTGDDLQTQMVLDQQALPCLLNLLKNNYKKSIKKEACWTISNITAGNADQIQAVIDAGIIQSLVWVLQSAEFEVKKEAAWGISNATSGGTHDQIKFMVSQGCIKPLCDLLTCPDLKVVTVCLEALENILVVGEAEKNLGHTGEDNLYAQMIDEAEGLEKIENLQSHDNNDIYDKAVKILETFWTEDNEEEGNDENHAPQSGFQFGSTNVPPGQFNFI

“HaRxL106ΔC–SV40NLS fusion (recombinant, for ITC)” registered an equilibrium dissociation constant (Kd) of 2220 to 3700 nM.

The substance “His6-HaRxL106 (effector domain, amino acids 46–285) (domain or fragment)” had an equilibrium dissociation constant (Kd) of 540 to 850 nM and a stoichiometry N of 1. For the substance His6–SAP11 (natural protein), the Kd was in the range of 4420 to 6800 nM.

Source of the values: paper PMC4350430.
